Measured values from patent US20210324075A1 (ARCH ONCOLOGY, published 2021).

Legend:
[1] = molecular target: T1, human CD47 (human, UniProt Q08722 19-292); experiment: flow cytometry on human RBCs, apparent affinity by non-linear fit of median fluorescence
T1 construct: On human RBCs, on OV10 cells transfected with human CD47 (OV10-hCD47) and on Jurkat T cells; also called hCD47; integrin-associated protein (IAP)
Description: (§1) Binding activities of murine mAbs to mouse CD47 on murine RBCs (mRBCs) and human CD47 on human RBCs (hRBCs) were determined using flow cytometry. RBCs were incubated for 60 min on at 37° C. with various concentrations of the chimeric or humanized antibodies in a solution of phosphate buffered saline, pH 7.2, 2.5 mM EDT A (PBS+E). Cells were then washed with cold PBS+E and incubated for an additional hour on ice with a FITC labeled goat-anti-mouse antibody (Jackson Immuno Research Labs, West Grove, Pa.) in PBS +E. Cells were washed with PBS+E, antibody binding analyzed using a C6 Accuri How Cytometer (Becton Dickinson) and apparent binding affinities determined by non-linear fit (Prism GraphPad software) of the median fluorescence intensities at the various antibody concentrations.

[2] = molecular target: T2, rat CD47 (rat, UniProt P97829 19-303); experiment: flow cytometry on rat RBCs, apparent affinity by non-linear fit of median fluorescence
T2 construct: whole, on cells; also called CD47 on rat RBCs
T2 sequence (looked up): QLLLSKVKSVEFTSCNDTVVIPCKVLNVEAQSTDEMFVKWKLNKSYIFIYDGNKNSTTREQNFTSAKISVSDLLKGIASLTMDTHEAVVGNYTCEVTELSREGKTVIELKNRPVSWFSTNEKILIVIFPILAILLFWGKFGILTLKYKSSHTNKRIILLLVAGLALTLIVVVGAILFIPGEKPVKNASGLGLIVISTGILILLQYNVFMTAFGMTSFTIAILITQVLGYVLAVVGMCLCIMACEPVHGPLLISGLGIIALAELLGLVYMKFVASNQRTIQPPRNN

[3] = molecular target: T3, dog CD47 (dog); experiment: flow cytometry on dog RBCs, apparent affinity by non-linear fit of median fluorescence
T3 construct: whole, on cells; also called CD47 on dog RBCs

[4] = molecular target: T4, pig CD47 (pig, UniProt Q9GKE8 19-303); experiment: flow cytometry on pig RBCs, apparent affinity by non-linear fit of median fluorescence
T4 construct: whole, on cells; also called CD47 on pig RBCs
T4 sequence (looked up): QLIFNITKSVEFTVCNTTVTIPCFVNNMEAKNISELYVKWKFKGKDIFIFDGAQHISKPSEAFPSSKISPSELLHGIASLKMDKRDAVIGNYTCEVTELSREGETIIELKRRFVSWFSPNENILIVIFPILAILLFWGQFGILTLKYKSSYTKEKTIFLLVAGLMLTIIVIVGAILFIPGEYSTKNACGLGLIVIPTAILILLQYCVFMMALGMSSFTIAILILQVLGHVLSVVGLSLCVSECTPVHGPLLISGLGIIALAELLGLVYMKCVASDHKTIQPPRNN

[5] = molecular target: T5, mouse CD47 (mouse, UniProt Q61735 19-303); experiment: flow cytometry on mouse RBCs, apparent affinity by non-linear fit of median fluorescence
T5 construct: whole, on cells; also called CD47 on murine RBCs (mRBCs)
T5 sequence (looked up): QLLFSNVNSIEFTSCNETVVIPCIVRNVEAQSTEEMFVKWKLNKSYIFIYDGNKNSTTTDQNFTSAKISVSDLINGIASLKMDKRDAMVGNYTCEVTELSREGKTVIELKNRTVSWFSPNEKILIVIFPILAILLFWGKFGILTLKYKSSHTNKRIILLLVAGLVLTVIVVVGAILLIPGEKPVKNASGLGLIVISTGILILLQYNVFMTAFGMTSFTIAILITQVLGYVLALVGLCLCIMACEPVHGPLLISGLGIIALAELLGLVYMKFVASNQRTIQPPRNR
Description: as §1

[6] = molecular target: T1, human CD47; experiment: flow cytometry on human RBCs, apparent affinity
Description: as §1, with “humanized” for “murine”, “to” for “to mouse CD47 on murine RBCs (mRBCs) and”, “RBCs” for “RBCs (hRBCs)”, “donkey-anti-human” for “goat-anti-mouse”, “PBS+E.” for “PBS +E.”, “Flow” for “How”

[7] = molecular target: T1, human CD47; experiment: cell-based ELISA on OV10-hCD47 tumor cells, apparent affinity
Description: Binding activities of humanized mAbs were determined using a cell-based ELISA assay with human OVIO-hCD47 cells expressing cell surface human CD47. OVIO hCD47 cells were grown in IMDM medium containing 10% heat inactivated fetal bovine serum (BioWest; S01520). One day before assay, 3×10⁴ cells were plated in 96 well cell bind plates (Corning #3300, VWR #66025-626) and were 95-100% confluent at the time of assay. Cells were washed, and various concentrations of purified antibodies added in IMDM 37° C. for 1 hr in 95%02 I 5% CO₂. Cells were then washed with media and incubated for an additional hour at 37° C. with HRP labeled secondary anti-human antibody (Promega) diluted 1/2500 in media. Cells were washed three times with PBS, and the peroxidase substrate 3,3′, 5,5′-tetramethylbenzidine is added (Sigma; Catalog #T4444). Reactions were terminated by the addition of HCl to 0.7N, and absorbance at 450 nm is determined using a Tecan model Infinite M200 plate reader. The apparent binding affinities of these clones to human OVIO-hCD47 cells was determined by non-linear fit (Prism GraphPad software).

[8] = molecular target: T1, human CD47; experiment: flow cytometry on human RBCs and cell-based ELISA on OV10-hCD47 cells
Description: as §1, with “humanized” for “murine”, “to” for “to mouse CD47 on murine RBCs (mRBCs) and”, “RBCs” for “RBCs (hRBCs)”, “donkey-anti-human” for “goat-anti-mouse”, “PBS+E.” for “PBS +E.”, “Flow” for “How”
Binding activities of humanized mAbs were determined using a cell-based ELISA assay with human OVIO-hCD47 cells expressing cell surface human CD47. OVIO hCD47 cells were grown in IMDM medium containing 10% heat inactivated fetal bovine serum (BioWest; S01520). […] Reactions were terminated by the addition of HCl to 0.7N, and absorbance at 450 nm is determined using a Tecan model Infinite M200 plate reader. The apparent binding affinities of these clones to human OVIO-hCD47 cells was determined by non-linear fit (Prism GraphPad software).

T1 sequence (Q08722 other isoform, or with tags, fused parts or gaps limits assumed): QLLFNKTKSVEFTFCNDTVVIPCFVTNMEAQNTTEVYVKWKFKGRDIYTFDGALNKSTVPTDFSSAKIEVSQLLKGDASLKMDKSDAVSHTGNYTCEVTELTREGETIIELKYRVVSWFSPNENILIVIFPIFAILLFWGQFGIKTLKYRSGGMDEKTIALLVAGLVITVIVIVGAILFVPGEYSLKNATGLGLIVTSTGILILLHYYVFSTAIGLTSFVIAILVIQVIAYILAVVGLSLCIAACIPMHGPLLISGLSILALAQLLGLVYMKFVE

B1: Vx10 (antibody, V domains shown)
VH: QVQLQQSGAELAKPGASVKMSCKASGYTFTNYWIHWIKQRPGQGLEWIGYIDPNTVYTDYNQRFEDKATLTADKSSNTAYMQLNSLTSEDSAVYYCSRGGKRGVDSWGQGTSVTVSS
VL: DVVMTQTPLSLPVSLGDQASISCRSSQSLENSNGDTYLNWYLQKPGQSPQLLIYRVSNRFSGVLDRFSGSGSGTDFTLQISRVEAEDLGVYFCLQVSHVPWTFGGGTNLEIK
notes: Murine mAb; also called murine anti-CD47 mAb Vx10
A Kd [1] of 0.459 nM, a Kd [2] of 0.179 nM and a Kd [3] of 0.714 nM were found for B1 in this work. For the same binder, the Kd [4] was 0.123 nM and the Kd [5] was 0.031 nM.

B2: Vx11 (antibody, V domains shown)
VH: EVQLQQSGAQLVKPGTSMKLSCKASGYTFTNYFLYWVKQRPGQGLEWIGDINPNAGSTNLNERFKSKATLTVDKSSSTAYLQLSGLTSEDSAVYYCTRGGYTMDYWGQGTSVTVSS
VL: DVVMTQTPLSLPVSLGDQASISCRSSQSLENSNGDTYLNWYLQKPGQSPQLLIYRVSNRFSGVLDRFSGSGSGTDFTLQISRVEAEDLGVYFCLQVSHVPWTFGGGTNLEIK
notes: Murine mAb; also called murine anti-CD47 mAb Vx11
A Kd [1] of 0.091 nM, a Kd [2] of 0.231 nM and a Kd [3] of less than 0.013 nM were found for B2 in this work. For the same binder, the Kd [5] was 0.246 nM.

B3: Vx12 (antibody, V domains shown)
VH: QVQLLQSGAQLVKPGTSMKLSCKASGYTFTNYFLYWVKQRPGQGLEWIGDINPNAGSTNLNERFKSKATLTVDKSSSTAYLQLSGLTSEDSAVYYCTRGGYTMDYWGQGTSVTVSS
VL: DVVMTQIPLSLPVSLGDQASISCRSSQSLVHSNGNTYLHWYLQKPGQSPKLLIYKVSNRFSGVPDRFSGSGSGTDFTLKISRVEAEDLGVYFCSQSTHVPRTFGGGTKLEIK
notes: Murine mAb; also called murine anti-CD47 mAb Vx12
A Kd [1] of 0.384 nM, a Kd [3] of 0.101 nM and a Kd [4] of 0.06 nM were found for B3 in this work. The Kd [5] was less than 0.013 nM.

B4: Vx13 (antibody, V domains shown)
VH: EVQLQQSGPEVVKPGASVRISCKASDYTFTNYYIHWVRQRPGQGLEWIGWIYPGNNNNKYNEKFKGKATLTEDTSSSTAYMQLSSLTSEDSAVYFCARGGYTMDYWGQG
VL: DVLMTQTPLSLPVSLGDQASISCRSSQSLVHSNGNTYLHWYLQKPGQSPNLLIYKVSNRFSGVPDRFSGSGSGTDFTLKINRVETEDLGIYFCSQSTHVLTFGAG
notes: Murine mAb; also called murine anti-CD47 mAb Vx13
A Kd [1] of 0.874 nM, a Kd [3] of 1.62 nM and a Kd [4] of 0.102 nM were found for B4 in this work.

B5: Vx10_mh_IgG1N297Q (antibody)
heavy: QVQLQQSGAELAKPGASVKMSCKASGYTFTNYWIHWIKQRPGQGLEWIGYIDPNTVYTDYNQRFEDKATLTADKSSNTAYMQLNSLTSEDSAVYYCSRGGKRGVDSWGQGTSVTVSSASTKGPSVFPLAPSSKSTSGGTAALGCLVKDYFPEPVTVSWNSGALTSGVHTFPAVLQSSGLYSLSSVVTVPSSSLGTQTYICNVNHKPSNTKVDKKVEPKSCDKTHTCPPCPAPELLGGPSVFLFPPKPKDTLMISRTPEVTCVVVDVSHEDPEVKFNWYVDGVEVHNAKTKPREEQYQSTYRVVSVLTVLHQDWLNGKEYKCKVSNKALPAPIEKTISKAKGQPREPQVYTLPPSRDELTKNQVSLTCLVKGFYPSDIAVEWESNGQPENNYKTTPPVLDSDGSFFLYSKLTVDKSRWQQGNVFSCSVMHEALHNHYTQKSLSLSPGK
light: DVVMTQTPLSLPVSLGDQASISCRSSQSLENSNGDTYLNWYLQKPGQSPQLLIYRVSNRFSGVLDRFSGSGSGTDFTLQISRVEAEDLGVYFCLQVSHVPWTFGGGTNLEIKRTVAAPSVFIFPPSDEQLKSGTASVVCLLNNFYPREAKVQWKVDNALQSGNSQESVTEQDSKDSTYSLSSTLTLSKADYEKHKVYACEVTHQGLSSPVTKSFNRGEC
notes: Mouse-human chimeric full length IgG, human IgG1-N297Q and human kappa, made in CHO cells; also called chimeric Vx10 IgG1 N297Q
A Kd [6] of 0.04 nM and a Kd [7] of 0.087 nM were found for B5 in this work.

B6: Vx10_mh_IgG4PE (antibody)
heavy: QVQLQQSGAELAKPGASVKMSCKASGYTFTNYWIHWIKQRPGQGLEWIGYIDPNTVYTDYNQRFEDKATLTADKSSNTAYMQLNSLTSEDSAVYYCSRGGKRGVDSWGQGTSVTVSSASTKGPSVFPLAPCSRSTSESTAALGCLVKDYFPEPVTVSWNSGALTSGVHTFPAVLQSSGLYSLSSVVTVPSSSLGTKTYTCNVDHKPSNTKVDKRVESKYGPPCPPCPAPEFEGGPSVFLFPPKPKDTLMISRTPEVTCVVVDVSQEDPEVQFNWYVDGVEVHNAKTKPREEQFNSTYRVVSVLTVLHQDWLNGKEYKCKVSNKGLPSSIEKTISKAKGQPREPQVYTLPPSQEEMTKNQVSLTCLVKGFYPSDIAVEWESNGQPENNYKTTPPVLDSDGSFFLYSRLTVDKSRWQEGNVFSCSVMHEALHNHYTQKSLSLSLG
light: DVVMTQTPLSLPVSLGDQASISCRSSQSLENSNGDTYLNWYLQKPGQSPQLLIYRVSNRFSGVLDRFSGSGSGTDFTLQISRVEAEDLGVYFCLQVSHVPWTFGGGTNLEIKRTVAAPSVFIFPPSDEQLKSGTASVVCLLNNFYPREAKVQWKVDNALQSGNSQESVTEQDSKDSTYSLSSTLTLSKADYEKHKVYACEVTHQGLSSPVTKSFNRGEC
notes: Mouse-human chimeric full length IgG, human IgG4 PE and human kappa, made in CHO cells; also called chimeric Vx10 IgG4PE
A Kd [6] of 0.048 nM and a Kd [7] of 0.091 nM were found for B6 in this work.

B7: Vx12_mh_IgG1N297Q (antibody)
heavy: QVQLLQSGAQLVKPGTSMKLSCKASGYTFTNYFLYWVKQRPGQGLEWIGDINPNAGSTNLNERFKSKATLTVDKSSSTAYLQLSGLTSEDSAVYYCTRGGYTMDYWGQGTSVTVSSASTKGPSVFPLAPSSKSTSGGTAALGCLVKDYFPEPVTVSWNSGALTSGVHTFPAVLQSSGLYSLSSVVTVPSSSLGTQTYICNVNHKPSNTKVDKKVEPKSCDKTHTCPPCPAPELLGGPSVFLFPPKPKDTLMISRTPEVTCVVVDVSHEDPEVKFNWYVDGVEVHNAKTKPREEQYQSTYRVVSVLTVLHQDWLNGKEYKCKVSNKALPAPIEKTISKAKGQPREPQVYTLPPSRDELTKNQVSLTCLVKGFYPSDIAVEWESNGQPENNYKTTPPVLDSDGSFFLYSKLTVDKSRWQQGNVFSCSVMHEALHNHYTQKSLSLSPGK
light: DVVMTQIPLSLPVSLGDQASISCRSSQSLVHSNGNTYLHWYLQKPGQSPKLLIYKVSNRFSGVPDRFSGSGSGTDFTLKISRVEAEDLGVYFCSQSTHVPRTFGGGTKLEIKRTVAAPSVFIFPPSDEQLKSGTASVVCLLNNFYPREAKVQWKVDNALQSGNSQESVTEQDSKDSTYSLSSTLTLSKADYEKHKVYACEVTHQGLSSPVTKSFNRGEC
notes: Mouse-human chimeric full length IgG, human IgG1-N297Q and human kappa, made in CHO cells; also called chimeric Vx12 IgG1 N297Q
A Kd [6] of 0.09 nM and a Kd [7] of 0.069 nM were found for B7 in this work.

B8: Vx12_mh_IgG4PE (antibody)
heavy: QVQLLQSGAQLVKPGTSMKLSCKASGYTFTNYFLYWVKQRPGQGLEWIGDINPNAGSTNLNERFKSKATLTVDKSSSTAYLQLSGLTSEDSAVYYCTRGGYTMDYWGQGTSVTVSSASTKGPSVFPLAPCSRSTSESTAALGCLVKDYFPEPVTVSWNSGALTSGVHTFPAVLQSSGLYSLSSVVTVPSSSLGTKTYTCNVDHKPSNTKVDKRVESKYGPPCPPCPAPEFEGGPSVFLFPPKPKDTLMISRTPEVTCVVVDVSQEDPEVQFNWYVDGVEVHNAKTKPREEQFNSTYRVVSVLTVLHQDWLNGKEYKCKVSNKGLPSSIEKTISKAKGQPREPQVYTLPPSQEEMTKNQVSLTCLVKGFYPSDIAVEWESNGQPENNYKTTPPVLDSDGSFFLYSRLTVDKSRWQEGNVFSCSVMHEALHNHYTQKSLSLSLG
light: DVVMTQIPLSLPVSLGDQASISCRSSQSLVHSNGNTYLHWYLQKPGQSPKLLIYKVSNRFSGVPDRFSGSGSGTDFTLKISRVEAEDLGVYFCSQSTHVPRTFGGGTKLEIKRTVAAPSVFIFPPSDEQLKSGTASVVCLLNNFYPREAKVQWKVDNALQSGNSQESVTEQDSKDSTYSLSSTLTLSKADYEKHKVYACEVTHQGLSSPVTKSFNRGEC
notes: Mouse-human chimeric full length IgG, human IgG4 PE and human kappa, made in CHO cells; also called chimeric Vx12 IgG4PE
A Kd [6] of 0.12 nM and a Kd [7] of 0.07 nM were found for B8 in this work.

B9: humVx10_01_IgG4PE (antibody, V domains shown)
VH: QVQLVQSGAEVKKPGASVQVSCKASGYTFTNYWIHWLRQAPGQGLEWMGYIDPNTVYTDYNQRFEDRVTMTSDTSISTAYMELSSLRSDDTAVYYCARGGKRGVDSWGQATLVTVSS
VL: DIVMTQSPLSLPVTPGEPASISCRSSQSLENSNGDTYLNWYLQKPGQSPRLLIYRVSNRFSGVPDRFSGSGSGTDFTLKISRVEADDVGIYYCLQVSHVPWTFGQGTKLEIKR
notes: Humanized full length IgG4 PE, human kappa
B9: binds [8].
